The assay deals with soluble polymeric amyloid beta (UniProt P05067). In words: ELISA, plate coated with amyloid oligomer (55 µg/ml), anti-mouse IgG-AP detection. Background: ELISA stands for enzyme-linked immunosorbent assay.

The text below walks through data of EP3988566A1.

Chain of soluble polymeric amyloid beta (P05067 672-713): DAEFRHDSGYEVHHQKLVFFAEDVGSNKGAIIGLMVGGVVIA

B1: mouse monoclonal antibody ACI-01-Ab7C2 (antibody, mouse IgG2b, V domains shown)
VH: EVQLVESGGGLVQPGGSLKLSCAASGFTFSSYGMSWVRQTPDKRLELVASINSNGGSTYYPDSVKGRFTISRDNAKNTLYLQMSSLKSEDTAMYYCASGDYWGQGSTLTVSS
VL: DVVMTQTPLSLPVSLGDQASISCRSSQSLVYSNGDTYLHWYLQKPGQSPKLLIYKVSNRFSGVPDRFSGSGSGTDFTLKISRVEAEDLGVYFCSQSTHVPWTFGGGTKLEIK
The molecule B1 returned an O.D. at 0.078 ug/ml antibody of 0.652 O.D, an O.D. at 0.156 ug/ml antibody of 1.04 O.D, an O.D. at 0.312 ug/ml antibody of 1.72 O.D and an O.D. at 0.625 ug/ml antibody of 2.81 O.D.
